Substrate in data set [1]: O=C(O)C(=O)/C=C1/C=C[C@H](O)CC1
The experiment in a line: purified protein. Format: biochemical, Bacillus subtilis. The note with it: 2 mM NADH (saturating), 50 mM potassium phosphate pH 8.0, 5 µM BacG.

Substrate in data set [2]: O=C(O)C(=O)/C=C1\C=C[C@H](O)CC1
The experiment in a line: purified protein. It counts as biochemical, Bacillus subtilis. Conditions: 2 mM NADH (saturating), 50 mM potassium phosphate pH 8.0, 1 µM BacG.

B1: BacG (Bacillus subtilis subsp. subtilis str. 168) (protein)
chain: MSKRTAFVMGASQGIGKAIALKLADQHFSLVINSRNLDNIESVKEDILAKHPEASVIVLAGDMSDQHTRAGIFQKIESQCGRLDVLINNIPGGAPDTFDNCNIEDMTATFTQKTVAYIDAIKRASSLMKQNEFGRIINIVGNLWKEPGANMFTNSMMNAALINASKNISIQLAPHNITVNCLNPGFIATDRYHQFVENVMKKNSISKQKAEEQIASGIPMKRVGSAEETAALAAFLASEEASYITGQQISADGGSMKSI
Consider B1, for which the values for the kcat in “purified protein [1]” and in the data set “purified protein [2]” were 0.553 s⁻¹ and 1.19 s⁻¹, respectively.

Values taken from paper PMC3448026.
